We go through one substance from paper doi:10.1101/2021.01.28.428610.

For this assay, the target named is Cg1978-C-His (Gip with a C-terminal His tag) (Corynebacterium glutamicum ATCC 13032 (CGP3 prophage)). As to the kind of experiment: SPR. (Surface plasmon resonance follows binding to a sensor surface in real time, without labels.)

pKd: −log10 of the molar value.

Usually pKd stands for −log10 of the Kd, conventionally taken in molar units. The low end stands for a high Kd, the high end for a low Kd. In general, koff refers to the first-order rate constant of dissociation. A low value points to a long-lived complex. The term kon denotes the rate constant with which the complex forms. The substance “GyrA-N-Strep (C. glutamicum DNA gyrase subunit A with an N-terminal Strep-tag) (from UniProt Q8NUC6 1-856) (natural protein)” had a pKd of 8.27, an off-rate (koff) of 0.00092 s⁻¹ and a kon of 97000 M⁻¹ s⁻¹.
